By Kd is commonly meant a measure of binding affinity in units of concentration. Low readings indicate higher affinity, high ones lower affinity.

In data set [1] the target is T1, von Willebrand factor (VWF) (Homo sapiens, UniProt P04275 P04275:764-2813). Nature of the data set: filter; Bmax 54%; 2 mM CaCl2, 37 C. The note with it: tags: factor VIII free, Haematologic Technologies Inc; label: 5'-32P. On the procedure:
(§1) Affinity constants (Kd values) were determined using double-filter nitrocellulose filter binding assays (Rusconi et al, Thromb. Haemost. $4:841-848 (2000)). All binding studies were performed in binding buffer F (20 mM HEPES, pH 7.4, 150 mM NaCl, 2 mM CaCl₂, and 0.01% BSA) at 37° C. Human purified VWF (factor VIII free) was purchased from Haematologic Technologies Inc. (Essex Junction, Vt.) and used in the double-filter nitrocellulose filter binding assay to determine the Kd of the aptamers. Briefly, RNA were end-labeled at the 5′ end with T4 polynucleotide kinase (New England Biolabs, Beverly, Mass.) and [γ³²P] ATP (Amersham Pharmacia Biotech, Piscataway, N.J.) (Fitzwater and Polisky, Methods Enzymol. 267:275-301 (1996)). End-labeled RNA was diluted in binding buffer F, heat denatured at 65° C. for 5 minutes, and subsequently equilibrated at 37° C. Direct binding was performed by incubating trace ³²P-RNA with varying concentrations of VWF protein in binding buffer F at 37° C. for 5 min. The fraction of the nucleic acid-protein complex which bound to the nitrocellulose membrane was quantified with a phosphorimager (Molecular Dynamics, Sunnyvale, Calif.). Non-specific binding of the radiolabeled nucleic acid was subtracted out of the binding such that only specific binding remained (Wong and Lohman, Proc. Natl. Acad. Sci. USA 90:5428-5432 (1993)).

In data set [2] the target is T1, von Willebrand factor (VWF). Nature of the data set: filter; Bmax 73%; 2 mM CaCl2, 37 C. The note with it: Haematologic Technologies Inc, label: 5'-32P. The procedure:
as §1

Data set [3] has the same target. Nature of the data set: filter; Bmax 57%; 2 mM CaCl2, 37 C. The following applies: tags: factor VIII free, Haematologic Technologies Inc; label: 5'-32P. The procedure:
as §1

For data set [4] the target is unchanged. Nature of the data set: filter; Bmax 49%; 2 mM CaCl2, 37 C. The note with it: Haematologic Technologies Inc, label: 5'-32P. The procedure: as §1
Data set [5] shares this target. In words: filter; Bmax 56%; 2 mM CaCl2, 37 C. The note with it: tags: factor VIII free, Haematologic Technologies Inc; label: 5'-32P. The procedure: as §1
The target is the same in data set [6]. In words: filter; Bmax 58%; 2 mM CaCl2, 37 C. The following applies: tags: factor VIII free, Haematologic Technologies Inc; label: 5'-32P. On the procedure:
as §1

For data set [7] the target is unchanged. In words: filter; Bmax 67%; 2 mM CaCl2, 37 C. The note with it: tags: factor VIII free, Haematologic Technologies Inc; label: 5'-32P. The procedure:
as §1

Data set [8] shares this target. Nature of the data set: filter; Bmax 71%; 2 mM CaCl2, 37 C. The note with it: Haematologic Technologies Inc, label: 5'-32P. On the procedure:
as §1

Data set [9] shares this target. Nature of the data set: filter; Bmax 87%; 2 mM CaCl2, 37 C. The following applies: tags: factor VIII free, Haematologic Technologies Inc; label: 5'-32P. On the procedure: as §1
Data set [10] has the same target. Nature of the data set: filter; Bmax 88%; 2 mM CaCl2, 37 C. The note with it: Haematologic Technologies Inc, label: 5'-32P. The procedure:
as §1

The target is the same in data set [11]. Nature of the data set: filter; Bmax 13%; 2 mM CaCl2, 37 C. The following applies: tags: factor VIII free, Haematologic Technologies Inc; label: 5'-32P. The procedure:
as §1

The mark [12] stands for this setting: tags: factor VIII free human purified VWF.

In data set [1], ACGAACUGCCCUCAGCUACUUUCAUGUUGCUGACGCACAGACGU (ssRNA, 2'-F C and U; 2'-OH A and G; 3' idT) [T25] yielded a Kd of 13.4 nM.

B1: T25 vrt15 (ssRNA)
RNA: ACGAACUGCCCUCAGCUACUUUCAUGUUGCUGACGCACAGACGU
modifications: rAmCrGrArAfCfUrGfCfCfCfUfCrArGfCfUrAfCfUfUfUfCrAfUrGfUfUrGfCfUrGrAfCrGfCrAfCrArGrAfCmGfU-idT
Regarding B1, in data set [2] (tags: factor VIII free), the dissociation constant (Kd) is 7.3 nM.

B2: T25 vrt11 (ssRNA)
RNA: B1 RNA
modifications: rAfCrGrArAfCfUrGfCfCfCfUfCrArGfCfUrAfCfUfUfUfCmAfUmGfUfUrGfCfUrGrAfCrGfCrAfCrArGrAfCrGfU-idT
Turning to B2, binding in [3] was put at a Kd of 7.2 nM.

B3: T25 vrt9 (ssRNA)
RNA: B1 RNA
modifications: rAfCrGrArAfCfUrGfCfCfCfUfCmAmGfCfUmAfCfUfUfUfCrAfUrGfUfUmGfCfUmGrAfCrGfCrAfCrArGrAfCrGfU-idT
Consider B3, for which the affinity in [3], expressed as Kd, was 9.8 nM. The molecule ACGAACUGCCCUCGAUCGACGCACAGACGU (ssRNA, rAfCrGmAmAmCfUmGfCfCfCfUmCmGmAmUmCmGrAfCmGfCmAmCmAmGmAfCrGfU-idT) [T59 vrt3] had a dissociation constant Kd in [4] (tags: factor VIII free) of 288 nM.

For ACGAACUGCCCUCAGACUUAUGUCUGACGCACAGACGU (ssRNA, 2'-F C and U; 2'-OH A and G; 3' idT) [T51], binding in data set [5] was put at a Kd of 17 nM. ACGAACUGCCCUCAGCAUUAUUGCUGACGCACAGACGU (ssRNA, 2'-F C and U; 2'-OH A and G; 3' idT) [T52] returned a Kd in data set [6] of 16 nM. As to ACGAACUGCCCUCGAUCGACGCACAGACGU (ssRNA, mAmCmGmAmAmCmUmGfCfCfCmUmCmGmAmUmCmGmAfCrGfCmAmCmAmGmAmCmGmUidT) [DTRI-008], the Kd in data set [7] stood at 7 nM. ACGAACUGCCCUCGAUUUCGACGCACAGACGU (ssRNA, 2'-F C and U; 2'-OH A and G; 3' idT) [T60] registered a Kd in data set [8] (tags: factor VIII free) of 12.5 nM. Molecule ACGAACUGCCCUCUUUUUUGACGCACAGACGU (ssRNA, 2'-F C and U; 2'-OH A and G; 3' idT) [T94] displayed a Kd in data set [9] of 5 nM.

ACGAACUGCCCUCUUUUUUGACGCACAGACGU (ssRNA, 2'-F C9,C10,C11,C22,G23,C24; rest 2'-OMe; 3' idT) [T94 vrt7]: binding in data set [8] (setting [12]) was characterised by a dissociation constant (Kd) of 29 nM. In turn, ACGAACUGCCCUCGUUUCAUCGACGCACAGACGU (ssRNA, 2'-F C and U; 2'-OH A and G; 3' idT) [T86] yielded a dissociation constant Kd in data set [10] (tags: factor VIII free) of 16 nM. Consider ACGAACUGCCCUCGUUUCAUCGACGCACAGACGU (ssRNA, 2'-F C9,C10,C11,C24,C26; ribo G25; rest 2'-OMe; 3' idT) [T86 vrt4], for which, in data set [10] (setting [12]), binding was put at a Kd of 12 nM. For ACGAACUGCCCUCGUUUCAUCGACGCACAGACGU (ssRNA, 2'-F C9,C10,C11,C24,G25,C26; rest 2'-OMe; 3' idT) [T86 vrt7], in data set [10] (setting [12]), binding was put at a Kd of 50 nM.

B4: T15 (ssRNA)
RNA: GGGAGGUGGACGAACUGCCCUCAGCUACCAUGUUGCUGACGCACAGACGACUCGCUG
modifications: 2'-F C and U; 2'-OH A and G
Take B4: the equilibrium dissociation constant (Kd) in data set [11] came to 83 nM. With ACGAACUGCCCUCGUAUUAUUUCGACGCACAGACGU (ssRNA, 2'-F C9,C10,C11,C26,C28,U36; rest 2'-OMe; 3' idT) [T89 vrt3], the Kd in data set [4] (setting [12]) is 63 nM.

ACGAACUGCCCUCGUAUUAUUUCGACGCACAGACGU (ssRNA, 2'-F C9,C10,C11,C26,G27,C28,U36; rest 2'-OMe; 3' idT) [T89 vrt6] returned a Kd in [2] (setting [12]) of 34.5 nM.

B5: T16 (ssRNA)
RNA: GGGAGGUGGACGAACUGCCCUCAGCUACGUUGCUGACGCACAGACGACUCGCUG
modifications: 2'-F C and U; 2'-OH A and G
In turn, B5 registered a Kd in data set [11] of 126 nM. Molecule ACGAACUGCCCUCGAUCGACGCACAGACGU (ssRNA, rAfCrGmAmAmCfUmGfCfCfCfUmCmGmAmUmCmGrAfCrGfCrAmCmAmGmAfCrGfU-idT) [T59 vrt11] yielded a Kd in [10] (tags: factor VIII free) of 1.3 nM. As for ACGAACUGCCCUCGUAAGACGCACAGACGUUUUUU (ssRNA, mAmCmGmAmAmCmUmGfCfCfCmUmCmGmUmAmAmGmAfCrGfCmAmCmAmGmAmCmGfUmUmUmUmUmUidT) [DTRI-012], the Kd in data set [2] (tags: factor VIII free) stood at 5.5 nM.
